# Measurements reported in the RNAGym collection of RNA variant scans (doi:10.1073/pnas.2313332121).
# B1: TPR t1 (parent)
# chain: GACCAAUCUGCCCUCAGAGCUCGAGAACAUCUUCGGAUGCAGAGGAGGCAGGCUUCGGUGGCGCGAUAGCGCCAACGUCCUCAACCUCCAAUGCAUCCCACCACAUGAUGAUGCCUGAAGAGCCUUGGUUUUUUG
# Variants of: B1
# Test: polymerase ribozyme fitness, log enrichment relative to wild type (log ratio); higher = more active; in vitro selection for triplet polymerase activity
# Procedure, shortened: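 PCR was used to build mutant libraries for each subunit of a heterodimeric triplet polymerase ribozyme, which were then transcribed. A single in vitro selection round, in triplicate, used a frozen incubation at −7 °C and recovered extended constructs by gel excision, streptavidin beads and RT-PCR. Fitness is the logarithm of genotype enrichment relative to wild-type enrichment, averaged over replicates with inverse-variance weights. The logarithm is base 2, and after Illumina sequencing only genotypes with ≥10 input reads and ≥1 read per output were kept.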
row,Variant,polymerase ribozyme fitness (log ratio)
1,U112A G117A G120U C124G,-1.37
2,A2U C40U G47U C72U C124A,-3.11
3,G61C C104U G110A,-2.86
4,C70G A111U,-5.55
5,G39U C86U,-1.64
6,G44U C73U G113C A121G G128A,-4.53
7,C12G C15A C22U A26G U116C A118U C124G,-2.97
8,G63A C114U,-2.82
9,A6C C70U U129A,-2.82
10,C11G C82G G117C,-2.58
11,U9C U59C A84U C104A C114U,-4.8
12,A29G C101G,-4.66
13,U78A C123A,0.278
14,A18G G39A C64A A90G G120C,-5.87
15,G19A U78C C124A U129C,-1.77
16,C53A G61U C82G A84G,-0.925
17,A18C G39U C101A,-3.85
18,C8G C20G C72U A95G,-3.64
19,C73U C114U C123A,-3.41
20,A29G A105C,-7.42
21,G10C U32C G52A U112A G128A,-2.52

row,Variant,polymerase ribozyme fitness (log ratio)
1,C62U A111C,0.533
2,C3U A6U C20G A37U C72U C82U G113A A119C U129C U133A,-5.44
3,C76A G110A C115A,-2.95
4,C62A C72U G93C,-1.64
5,U21C C56A C70U G110U,-6.01
6,A29C C49U C72U,-4.03
7,C56G C62U U106A G110U,-0.758
8,A43C C94U,-2.66
9,C12A G51A,-2.41
10,C3U G47U A50C,-2.21
11,C20U U54A C73A C115G,-3.1
12,C53U G61U C114U,-2.37
13,G60U G61U C104A,-5.16
14,U7A C8G A16C A46U,-0.61
15,C22A G120U,-4.24
16,C12A C76U U106A,-1.29
17,G17A A43U C73G G120A,-3.38
18,C11G C28U,-2.03
19,C20U G52U G61U U87C,-1.96
20,C8A A26U C94U C124G U125G G127U,-0.974
21,A43U U112C A119U,-0.989

row,Variant,polymerase ribozyme fitness (log ratio)
1,A27U C56G A91G U131A U133G,-5.19
2,G19A C56U C115A,-3.68
3,G47A G127C,-2.06
4,C11G G19C C73G,-3.75
5,C12U C13A C114G,-4
6,U7A C34A C97U,-1.97
7,G58A U92A,-2.93
8,C3A C72A G110U,-3.62
9,U59C A84C,-0.231
10,A41C G61U C70G C101A A111C,-5.73
11,G36U U78G A105C,-3.65
12,A2G G19U G120U,-2.98
13,C11G A50U G93U G113U,-4.55
14,G61U C89A,-1.5
15,C22G G35U A121C U132C,-4.9
16,C12U C22U U59C C89G U109A U116A C123G,-7.4
17,C28U G52U G120C,-2.81
18,C8U C12A G35U G45C C53G C104U,-6.79
19,A6U G10U C13G C40U A41C G63U U78C C79A A121G,-4.13
20,G71C A84G C104A U109G G117U C124A U130G,-5.84
21,G19A U54C C73G C82G C114G,-4.42

row,Variant,polymerase ribozyme fitness (log ratio)
1,G71C A75G,-0.0431
2,U9G C62U,-0.19
3,C72A A83U G128U,-2.86
4,G77A A95G G120A,0.0766
5,C28U A41U G48A,-5.18
6,C8G G10A,0.258
7,U9C G42U C53G C56A C73A C88U,-1.43
8,A27U G61U C102U U109G,-5.55
9,U7G C79U U81C C86U C88A U125A,-4.3
10,U59C A103U U112C G128U U132A U133A,-5.05
11,C15U C34A G45C,-6.34
12,C11A C115G,-3.42
13,G36U U81A,-2.11
14,C34A C97A C115G,-4.43
15,U7A U9C G45C C70U C89A C123A,-2.15
16,G77A U131A,0.113
17,A105U G135U,-2.99
18,C62U G69A,-3.76
19,G47U U125G,-2.32
20,G36A C64U C72A U106A,-0.401
